Assay results as given in patent US20250154231A1 (RQBIO COVID, published 2025).

B1: Omi28 (antibody, V domains shown)
VH: EVQLVESGGGLVQPGGSLRLSCAASGVIVSSNYMSWVRQAPGKGLQWVSVIYSGGSTFYADSVKGRFTISRDNSKNTLYLQMNSLRAEDTAVYYCARDLLEAGGTDYWGQGTLVTVSS
VL: DVVMTQSPGTLSLSPGERATLSCRASQFIGSSYLAWYQQKPGQAPRLLIYGASNRATGVPDRFSGSGSGTDFTLTISRLEPEDFAVYYCQQYGSAPGTFGQGTKVEIK
B2: Omi34 (antibody, V domains shown)
VH: QVQLVQSGAEVKKPGSSVKVSCKASGGTFSSYGIRWVRQAPGQGLEWMGGIIPVFGATNYAQKFQDRVTITADKSTATAYMELSSLKSDDTAVYFCARDALSASGWTGPFDSWGQGTLVTVSS
VL: QSVLTQPPSVSGAPGQRVTISCTGSSSNIGADYDVHWYQQLPGAAPKLLIYGNNNRPSGVPDRFSGSKSGTSASLAITGLQAEDEADYYCQSYDSSQNAFYVFGTGTKVTVL
B3: Omi31 (antibody, V domains shown)
VH: EVQLVQSGAEVKKPGSSVKVSCKASGGTFSSYGISWVRQAPGLGLEWMGGVIPILSAKHYAQRFQGRVTITADKSTGTAYMELSSLRSEDTAVYYCARDILHHDDLWGRFYYDGMDVWGQGTTVTVSS
VL: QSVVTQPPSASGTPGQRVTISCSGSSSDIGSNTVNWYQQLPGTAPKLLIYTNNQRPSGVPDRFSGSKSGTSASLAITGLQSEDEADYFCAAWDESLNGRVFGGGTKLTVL
B4: Omi24 (antibody, V domains shown)
VH: QVQLVESGAEVKKPGSSVKVSCKASGGTFSSHGVIWVRQAPGQGLEWMGGIIPIFPTANYAQKFQGRVTITADKPSNTAYMELSSLRSEDTAVYYCARARGEHDSVWGSFHYYFDYWGQGTLVTVSS
VL: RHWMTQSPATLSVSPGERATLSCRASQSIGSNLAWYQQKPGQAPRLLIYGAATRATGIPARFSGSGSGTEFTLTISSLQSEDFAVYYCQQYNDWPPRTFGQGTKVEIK
B5: Omi36 (antibody, V domains shown)
VH: EVQLVESGGGVVQPGGSLRLSCAASGIIVSANYMTWVRQAPGKGLEWVSVIYPGGSTFYADSVKGRFTISRDNSKNTLYLQMNSLRVEDSAVYYCARDLELAGFNDYWGQGTLVTVSS
VL: DIVMTQSPGTLSLSPGERATLSCRTSQSVSSNYLAWYQQKPGQAPRLLIYGASSRATGIPDRFSGSGSGTDFTLTISRLEPEDFAVYYCQQFGSSPRYTFGQGTKVEIK
B6: Omi32 (antibody, V domains shown)
VH: EVQLVESGGGVVQPGRSLRLSCAASGFTFSNYGMHWVRQAPGKGLEWVAVYWYDGGNKFYADSVKGRFTISRDNSKNTLYLQMNSLRVEDTAVYYCARDTAPPDYWGQGTLVTVSS
VL: AIRMTQSPGTLSLSPGERATLSCRASQSISSSFLAWYQQKPGQAPRLLIYGASSRATGIPDRFSGSGSGTDFTLTISRLEPEDFAVYYCQQYGTSPRLTFGGGTKVDIK
B7: Omi41 (antibody, V domains shown)
VH: QVQLVQSGAEVKKPGASVKVSCKAAGYSFMNYGINWVRQAPGQGLEWMGWINTYNGNAKYAQKFQGRVTMTTDTSTSTAYMELRSLRSGDTAVYYCARDPFTGYDDVWGGDYWGQGTLVTVSS
VL: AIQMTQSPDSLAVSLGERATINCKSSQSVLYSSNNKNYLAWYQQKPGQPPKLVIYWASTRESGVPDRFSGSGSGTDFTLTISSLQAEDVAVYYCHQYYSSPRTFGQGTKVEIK
B8: Omi39 (antibody, V domains shown)
VH: QVQLVESGGVVVQPGGSLRLSCAASGFSFDDYSMHWVRQAPGKGLEWVSVIYWDGVSKYYADSVKGRFTISRDNSKNSLYLQMNSLRTEDTAVYYCAKDSEDCSSTSCYMDVWGKGTTVTVSS
VL: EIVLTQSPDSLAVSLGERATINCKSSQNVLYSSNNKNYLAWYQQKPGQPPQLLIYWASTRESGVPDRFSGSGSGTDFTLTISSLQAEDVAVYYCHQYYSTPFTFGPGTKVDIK
B9: Omi42 (antibody, V domains shown)
VH: EVQLLETGGGLVQPGRSLRLSCAASGFPFDDYAIHWVRLAPGKGLEWVSSISWDSGSIGYADSVKGRFTISRDNAKNSLYLQMNSLRAEDTALYYCAKGAFPGYSSGWYYGLDVWGQGATVTVSS
VL: QSVVTQPPSASGSLGQSVTISCTGTSSDVGGYNYVSWYQQHPGKAPKLMIFEVSKRPSGVPDRFSGSKSGNTASLTVSGLQAEDEADYYCSSYAGNKGVFGGGTKLTVL
B10: Omi20 (antibody, V domains shown)
VH: EVQLVESGGGLVQPGGSLRLSCEASEITVSSNYMNWVRQAPGKGLEWVSVLFAGGTTYYADSVKGRFTISRDNSKNTLYLQMNTLRIEDTAIYYCARDLVAYGVDVWGQGTTVTVSS
VL: AIQMTQSPSFLSASVGDRVTITCRASQGISGDLAWYQQKPGKAPKLLIYAASTLQSGVPSRFSGSGSGTEFTLTISSLQPEDFATYYCQHLNSYPLTFGGGTKVEIK
B11: Omi02 (antibody, V domains shown)
VH: EVQLVESGAEVKKPGSSVKVSCKASGGTFSSYAINWVRQAPGQGLEWMGGIIPIFRTPHYAQKFQGRVTITADESTGTAYMELSSLRSEDTAVYYCASPSCGGDCPQYLKSSKLDWYFDLWGRGTLVTVSS
VL: VIWMTQSPGTLSLSPGERATLSCRASQSVSSTYLAWYQQKPGQAPRLLIYGASSRATGIPDRFSGSGSGTDFTLTISRLEPEDFAVYYCQHYGSSPLTFGQGTRLEIK
B12: Omi35 (antibody, V domains shown)
VH: QVQLVESGGGLVQPGRSLRLSCAASGFTFDDYAMHWVRQAPGKGLEWVSGSTWNSGTIDYADSVKGRFTISRDNAKNSLYLQMNSLRAEDTALYYCAKDRFRKGCSSTGCYKENYGMDVWGQGTTVTVSS
VL: QSVVTQPPSVSVAPGQTARITCGGTNIGSKSVHWYQQKPGQAPVLVVYDDSDRPSGIPERFSGSNSGNTATLTITWVEAGDEADYYCQVWDSSSDNVLFGGGTKLTVL
B13: Omi09 (antibody, V domains shown)
VH: QVQLVESGGGVVQPGRSLRLSCAASGFTFRTYAVHWVRQAPGKGPEWVAVISYDGSNKYYADSVKGRFTLSRDTSKNTLYLQMNSLRAEDTAVYYCASRGDTVTTGDAFDIWGQGTMVTVSS
VL: SYELTQPPSVSVSPGQTARITCSGDALPKQYTYWYQQKPGQPPVLVIYKDSERPSGIPERFSGSSSGTTVTLTISGVQAEDEADYYCQSTDSSATYPGNVVFGGGTKLTVL
B14: Omi30 (antibody, V domains shown)
VH: EVQLVESGAEVKKPGSSVKVSCKASGGTFSRYAISWVRQAPGQGLEWMGGIIPIFDATNYAQKFHDRVTITADKSASTAYMELSSLRSDDTAVYYCARERTYCSGGTCYGGYFYYGMDVWGQGTTVTVSS
VL: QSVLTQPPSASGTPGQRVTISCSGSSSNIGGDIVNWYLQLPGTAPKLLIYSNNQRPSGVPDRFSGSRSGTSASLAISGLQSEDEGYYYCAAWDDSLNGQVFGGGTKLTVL
B15: Omi29 (antibody, V domains shown)
VH: QVQLVESGGGLVQPGGSLRLSCAASGLIVSRNYMSWVRQAPGKGLEWVSLIYAGGSTFYSDSVKGRFTISRHSSENTLFLQMNSLRAEDTAVYYCARDLVHYGMDVWGQGTTVTVSS
VL: NFMLTQPASVSGSPGQSITISCTGTSSDVGGYNYVSWYQQHPGKAPKLMIYDVSNRPSGVSNRFSGSNSGNTASLTISGLQAEDEADYYCSSYTSGSTWVFGGGTKLTVL
B16: Omi06 (antibody, V domains shown)
VH: EVQLLESGPGLVKPSETLSLTCTVSGGSISRYSWSWIRQPAGRGLEWIGRMYSSGGTNYNPSLESRVTMSLDTSKKQFSLKLSSVTAADTAVYYCAAASIDQVWGTYRDAFDIWGQGTMVTVSS
VL: AIRMTQSPSSLAASVGDRVTISCRAGQSISSFLHWYQQKVGKAPKLLIYDASSLQSGVPSRFSGSGSGTDFTLTISSLQPEDFAAYYCQQSYENPLTFGGGTKVDIK
B17: Omi25 (antibody, V domains shown)
VH: QVQLVESGGGLVQPGRSLRLSCAASGFTFDDYAMHWVRQVPGKGLEWVSGISWNSGSIVYADFVKGRFTIARDNAKNSLFLQMNSLRAEDTALYYCAKSTALRHQYYYGMDVWGQGTTVTVSS
VL: AIQMTQSPSSLSASVGDRVTITCRTSQTISSYLNWYQQKPGKAPKLLIYDASSLQSGVPSRFSGSGYGTDFTLTISSLQPEDFATYFCQQSYNTPYAFGQGTKVEIK
B18: Omi38 (antibody, V domains shown)
VH: QVQLVESGAEVKKPGSSVKVSCKASGGNFNMYTISWVRQAPGRGLEWMGRFIPIANKANYAQNFPGRVTITADKSTSTVYMELRSLTSDDTAVYYCARSGSYDAFDVWGQGTMVTVSS
VL: AIRMTQSPSTLSASVGDRVTITCRASQTINSWLAWYQQKPGKAPKLLIYDASNLESGVPSRFSGSGSGTEFTLTISSLQPDDFATYYCQQYESYSPITFGQGTRLEIK
B19: Omi27 (antibody, V domains shown)
VH: EVQLLESGGGLVQPGGSLRLSCVASGLTVSSNYMSWVRQAPGKGLEWVSIIYPGGTTYYADSVKGRFTTSRDKSKNTLYLQMNSLRAEDTAVYYCARDLAVAGGMDVWGQGTTVTVSS
VL: EIVMTQSPSSLSASVGDRVTITCRASQGIGNDLGWYQQKPGKAPKVLIYAASNLQSGVPSRFSGSGSGTDFTLTISSLQPEDFATYYCLQDSNYPYTFGQGTKVEIK
B20: Omi26 (antibody, V domains shown)
VH: QVQLVQSGTEVKKPGASVKVSCKASDYTFTRFGIIWVRQAPGQGLEWMGQINPYNGNTDYAQKFQGRVTLTTDTSTNTAYMELRSLRSDDTAVYYCARSAGSPTGLDYWGQGTLVTVSS
VL: QSVVTQPPSVSEAPRQRVTISCSGSNSNIGNNAVNWYQQLPGKAPKLLVYYDDLLPSGVSDRFSGSKSGTSASLAISGLQSEDKADYYCAAWDDSLNALVFGGGTKLTVL
B21: Omi08 (antibody, V domains shown)
VH: EVQLVESGAEVKRPGASVKVSCKASGYTFTNYFMHWVRQAPGQGLEWMGVINPSDGGASYPQKFQGRVTMTRDTSTSTVYMDLSSLRSEDTAVYSCARGAFDVSGSWYVPFDYWGQGTLVTVSS
VL: QSVVTQPPSVSGAPGQRVTISCTGSSSNIGAGYDVHWYQQLPGAAPKLLIYGNTNRPSGVPDRFSGSKSGTSASLAITGLQAEDEADYYCQSYDITLSGSGYVFGTGTKVTVL
B22: Omi23 (antibody, V domains shown)
VH: QVQLQESGPGLVKSSQTLSLTCTVSGDSISRGGYYWSWIRQHPGKGLEWIGSIYYSGSTYYNPSLKSRFTISVDTSKNQFSLKLSSVTAADTAVYHCAREIGFLDYWGQGTLVTVSS
VL: AIQMTQSPSSLSASVGDRVTITCRASQAISNSLAWYQQKPGKAPKLLLYAASTLESGVPSRFSGSGSGTDFTLTISSLQPEDFATYFCQQYYSTPPRTFGQGTKVDIK
B23: Omi12 (antibody, V domains shown)
VH: EVQLVESGPEVKKPGTSVKVSCKASGFSFSMSAMQWVRRARGQRLEWIGWIVPGSGNANYAQKFQERVTITRDESTNTGYMELSSLRSEDTAVYYCAAPHCNKTNCYDAFDIWGQGTMVTVSS
VL: AIRMTQSPGTLSLSPGERATLSCRASQSVRSSYLAWYQQKPGQAPRLLIYGASTRATGIPDRFSGSGSGTDFILTINRLEPEDLAVYYCQQFGSSPWTFGQGTKVDIK

Molecular target: SARS-CoV-1 S protein (SARS-CoV-1, UniProt P59594 14-1195)
Assay: ELISA

Binder	binding result
B1	no binding
B2	no binding
B3	no binding
B4	no binding
B5	no binding
B6	no binding
B7	no binding
B8	no binding
B9	no binding
B10	no binding
B11	no binding
B12	no binding
B13	no binding
B14	no binding
B15	no binding
B16	no binding
B17	no binding
B18	no binding
B19	no binding
B20	no binding
B21	no binding
B22	no binding
B23	no binding
